Values quoted from earlier work as cited in paper PMC12071944, “Interaction Between Glucagon-like Peptide 1 and Its Analogs with Amyloid-β Peptide Affects Its Fibrillation and Cytotoxicity” (International Journal of Molecular Sciences, 2025).

System: AD patients
Conditions: human, in vivo
Text: Worldwide, approximately 416 million individuals are affected by AD dementia, prodromal AD, or preclinical AD, accounting for 22% of the population aged 50 years and older.

B1: lecanemab (antibody, chains of the INN, looked up, V domains shown)
VH: EVQLVESGGGLVQPGGSLRLSCSASGFTFSSFGMHWVRQAPGKGLEWVAYISSGSSTIYYGDTVKGRFTISRDNAKNSLFLQMSSLRAEDTAVYYCAREGGYYYGRSYYTMDYWGQGTTVTVSS
VL: DVVMTQSPLSLPVTPGAPASISCRSSQSIVHSNGNTYLEWYLQKPGQSPKLLIYKVSNRFSGVPDRFSGSGSGTDFTLRISRVEAEDVGIYYCFQGSHVPPTFGPGTKLEIK
side effects: brain edema and microhemorrhages
